Measurements taken from patent publication US20170037110A1 (IMMATICS BIOTECHNOLOGIES, published 2017).

B1: VLLSLLEKV (peptide)
peptide: VLLSLLEKV
B2: KLAEGLDIQL (peptide)
peptide: KLAEGLDIQL
B3: FMIDASVHPTL (peptide)
peptide: FMIDASVHPTL
B4: LLLLDTVTMQV (peptide)
peptide: LLLLDTVTMQV
B5: ILLEHGADPNL (peptide)
peptide: ILLEHGADPNL
B6: KLLEATSAV (peptide)
peptide: KLLEATSAV
B7: KLPPPPPQA (peptide)
peptide: KLPPPPPQA
B8: SLLKEPQKVQL (peptide)
peptide: SLLKEPQKVQL
B9: LLIGHLERV (peptide)
peptide: LLIGHLERV
B10: SLLPGNLVEKV (peptide)
peptide: SLLPGNLVEKV
B11: SLIDKLYNI (peptide)
peptide: SLIDKLYNI
B12: ILVEADSLWVV (peptide)
peptide: ILVEADSLWVV
B13: ALITEVVRL (peptide)
peptide: ALITEVVRL
B14: AMLEKNYKL (peptide)
peptide: AMLEKNYKL
B15: VMFRTPLASV (peptide)
peptide: VMFRTPLASV
B16: KLAKQPETV (peptide)
peptide: KLAKQPETV
B17: SLVESHLSDQLTL (peptide)
peptide: SLVESHLSDQLTL
B18: ALNDCIYSV (peptide)
peptide: ALNDCIYSV
B19: QLCDLNAEL (peptide)
peptide: QLCDLNAEL
B20: VLIANLEKL (peptide)
peptide: VLIANLEKL
B21: FLAKDFNFL (peptide)
peptide: FLAKDFNFL
B22: YLRSVGDGETV (peptide)
peptide: YLRSVGDGETV
B23: KINDTIYEV (peptide)
peptide: KINDTIYEV
B24: YLASDEITTV (peptide)
peptide: YLASDEITTV
B25: YLYNNMIAKI (peptide)
peptide: YLYNNMIAKI
B26: KLLEVSDDPQV (peptide)
peptide: KLLEVSDDPQV
B27: AMATESILHFA (peptide)
peptide: AMATESILHFA
B28: YLDPALELGPRNV (peptide)
peptide: YLDPALELGPRNV
B29: LLLNEEALAQI (peptide)
peptide: LLLNEEALAQI
B30: ALMERTGYSMV (peptide)
peptide: ALMERTGYSMV
B31: ALLPASGQIAL (peptide)
peptide: ALLPASGQIAL
B32: YLLHEKLNL (peptide)
peptide: YLLHEKLNL
B33: SLFGNSGILENV (peptide)
peptide: SLFGNSGILENV
B34: YVLEDLEVTV (peptide)
peptide: YVLEDLEVTV
B35: ALLEDSCHYL (peptide)
peptide: ALLEDSCHYL
B36: GLIEDYEALL (peptide)
peptide: GLIEDYEALL
B37: SLIEKVTQL (peptide)
peptide: SLIEKVTQL
B38: NVPDSFNEV (peptide)
peptide: NVPDSFNEV
B39: AVMESIQGV (peptide)
peptide: AVMESIQGV
B40: LLINSVFHV (peptide)
peptide: LLINSVFHV
B41: FLAEDPKVTL (peptide)
peptide: FLAEDPKVTL
B42: KMWEELPEVV (peptide)
peptide: KMWEELPEVV
B43: FLLQHVQEL (peptide)
peptide: FLLQHVQEL
B44: GLNDRSDAV (peptide)
peptide: GLNDRSDAV
B45: FLLEDDIHVS (peptide)
peptide: FLLEDDIHVS
B46: SLFDGFADGLGV (peptide)
peptide: SLFDGFADGLGV
B47: GLLGEKTQDLIGV (peptide)
peptide: GLLGEKTQDLIGV
B48: ALQPEPIKV (peptide)
peptide: ALQPEPIKV
B49: FIFSEKPVFV (peptide)
peptide: FIFSEKPVFV
B50: FLVEKQPPQV (peptide)
peptide: FLVEKQPPQV
B51: GLLEKLTAI (peptide)
peptide: GLLEKLTAI
B52: KLWTGGLDNTV (peptide)
peptide: KLWTGGLDNTV
B53: KIFDIDEAEEGV (peptide)
peptide: KIFDIDEAEEGV
B54: SLMEDQVLQL (peptide)
peptide: SLMEDQVLQL
B55: LLDPNVKSIFV (peptide)
peptide: LLDPNVKSIFV
B56: SVAPNLPAV (peptide)
peptide: SVAPNLPAV
B57: RLLAQVPGL (peptide)
peptide: RLLAQVPGL
B58: SLNHFTHSV (peptide)
peptide: SLNHFTHSV
B59: GLSDGNPSL (peptide)
peptide: GLSDGNPSL
B60: SLAPGDVVRQV (peptide)
peptide: SLAPGDVVRQV
B61: KLLGKVETA (peptide)
peptide: KLLGKVETA
B62: KLIDDQDISISL (peptide)
peptide: KLIDDQDISISL
B63: ILAQEQLVVGV (peptide)
peptide: ILAQEQLVVGV
B64: FLFDTKPLIV (peptide)
peptide: FLFDTKPLIV
B65: KLYSVVSQL (peptide)
peptide: KLYSVVSQL
B66: FLDPYCSASV (peptide)
peptide: FLDPYCSASV
B67: TLLVKVFSV (peptide)
peptide: TLLVKVFSV
B68: SLSEIVPCL (peptide)
peptide: SLSEIVPCL
B69: SLWPSPEQL (peptide)
peptide: SLWPSPEQL
B70: LLQELVLFL (peptide)
peptide: LLQELVLFL
B71: AVGPASILKEV (peptide)
peptide: AVGPASILKEV
B72: LLMPIPEGLTL (peptide)
peptide: LLMPIPEGLTL
B73: KLNAEVACV (peptide)
peptide: KLNAEVACV

biological target: T1, HLA-A*02:01 (human); assay: UV peptide exchange ELISA
T1 construct: monomers captured on streptavidin plates; also called MHC class I
In short: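 Read-out is an ELISA on the UV-exchange reaction: monomers, diluted 100-fold, are captured on streptavidin and the β2m light chain is detected with 2 μg/ml HRP antibody and TMB at 450 nm.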

Binder | peptide exchange yield [%]
B1 | 20 to 50
B2 | 50 to 75
B3 | 50 to 75
B4 | 20 to 50
B5 | 50 to 75
B6 | 20 to 50
B7 | 50 to 75
B8 | 20 to 50
B9 | 50 to 75
B10 | 50 to 75
B11 | 20 to 50
B12 | 50 to 75
B13 | 20 to 50
B14 | ≥ 75
B15 | 20 to 50
B16 | 50 to 75
B17 | 50 to 75
B18 | 50 to 75
B19 | 50 to 75
B20 | ≥ 75
B21 | 50 to 75
B22 | 50 to 75
B23 | 50 to 75
B24 | 50 to 75
B25 | 50 to 75

Binder | peptide exchange yield [%]
B26 | 50 to 75
B27 | 50 to 75
B28 | 50 to 75
B29 | 50 to 75
B30 | 50 to 75
B31 | 50 to 75
B32 | 50 to 75
B33 | 50 to 75
B34 | 20 to 50
B35 | 50 to 75
B36 | 50 to 75
B37 | 50 to 75
B38 | 50 to 75
B39 | 50 to 75
B40 | 50 to 75
B41 | 50 to 75
B42 | 50 to 75
B43 | 50 to 75
B44 | 20 to 50
B45 | 50 to 75
B46 | 50 to 75
B47 | 50 to 75
B48 | 20 to 50
B49 | 50 to 75
B50 | 50 to 75

Binder | peptide exchange yield [%]
B51 | 50 to 75
B52 | 50 to 75
B53 | 20 to 50
B54 | 50 to 75
B55 | 50 to 75
B56 | 50 to 75
B57 | 50 to 75
B58 | 50 to 75
B59 | 20 to 50
B60 | 20 to 50
B61 | 50 to 75
B62 | 50 to 75
B63 | 50 to 75
B64 | 50 to 75
B65 | 20 to 50
B66 | 20 to 50
B67 | 50 to 75
B68 | 50 to 75
B69 | 20 to 50
B70 | 50 to 75
B71 | 20 to 50
B72 | 50 to 75
B73 | 50 to 75
